# Molecular target: recombinant human iduronate-2 sulfatase (rhIDS) (human) (UniProt P22304)
# Test: cell-based or functional assay
# Sequence of recombinant human iduronate-2 sulfatase (rhIDS) (human) (P22304 26-550 limits assumed): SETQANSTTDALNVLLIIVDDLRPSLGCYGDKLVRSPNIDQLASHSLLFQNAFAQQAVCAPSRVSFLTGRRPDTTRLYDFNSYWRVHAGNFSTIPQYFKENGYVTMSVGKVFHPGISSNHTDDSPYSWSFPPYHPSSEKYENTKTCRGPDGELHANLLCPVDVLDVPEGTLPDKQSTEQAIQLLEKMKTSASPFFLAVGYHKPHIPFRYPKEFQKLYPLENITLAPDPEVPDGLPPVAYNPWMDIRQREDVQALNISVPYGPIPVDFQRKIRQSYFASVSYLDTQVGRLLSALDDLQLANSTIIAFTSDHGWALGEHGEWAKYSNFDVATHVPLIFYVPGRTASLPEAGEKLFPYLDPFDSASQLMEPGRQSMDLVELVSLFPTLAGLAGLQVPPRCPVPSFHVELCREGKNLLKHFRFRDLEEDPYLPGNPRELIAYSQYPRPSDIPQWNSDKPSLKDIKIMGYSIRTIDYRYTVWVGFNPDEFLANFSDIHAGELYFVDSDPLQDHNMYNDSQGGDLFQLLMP
Substance,"% FGly (LC-MS); 1 copy rhIDS, 1 copy BtFGE (POX)","% FGly (LC-MS); 1 copy rhIDS, 1 copy BtFGE (POX), 1 copy hPDI (POX)",% FGly (LC-MS); co-expression with DpFGE
Bos taurus FGE fusion protein (Lip2pre-BtFGE-6HIS-HDEL) (from UniProt Q0P5L5 34-374) (enzyme),100%,100%,
Dendroctonus ponderosa Lip2-DpFGE-His6-HDEL fusion construct (enzyme),,,25%

# From patent US20190040368A1
